# T1: Scar(1-225)/AbiA(1-149)/DdBrk1-complex (Dictyostelium discoideum, UniProt Q54NF8 1-225; Q55FT9 1-149; Q54X65 1-68)
# T1 construct: AbiA (Abi) of Dictyostelium discoideum, residues 1-149, untagged; remnant after PreScission cleavage; Brk1 of Dictyostelium discoideum, 68 residues; In the exchange experiment the unlabelled DdBrk1 chain of this complex is replaced by DdBrk1_488; also called Scar/AbiA/DdBrk1 subcomplex; source: E. coli BL21 DE3, coexpressed, purified (glutathione sepharose, PreScission cleavage, Superdex-S75); …
# T1 sequence 1: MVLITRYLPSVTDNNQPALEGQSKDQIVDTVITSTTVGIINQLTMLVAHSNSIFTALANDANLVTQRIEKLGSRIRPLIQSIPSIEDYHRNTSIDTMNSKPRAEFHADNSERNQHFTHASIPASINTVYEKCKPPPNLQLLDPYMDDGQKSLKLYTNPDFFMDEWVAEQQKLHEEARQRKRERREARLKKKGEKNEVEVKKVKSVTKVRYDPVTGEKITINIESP
# T1 sequence 2: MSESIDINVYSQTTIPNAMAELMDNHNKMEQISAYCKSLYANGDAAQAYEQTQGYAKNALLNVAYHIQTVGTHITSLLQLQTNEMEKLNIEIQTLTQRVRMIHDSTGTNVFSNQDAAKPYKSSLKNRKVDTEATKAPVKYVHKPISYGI
# T1 sequence 3: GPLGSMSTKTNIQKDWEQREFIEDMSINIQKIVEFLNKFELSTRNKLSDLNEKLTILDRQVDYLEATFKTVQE
# Experiments:
# [1] = molecular target: the molecule itself; assay: AUC; sedimentation equilibrium, 43 µM and 171 µM DdBrk1, PBS, 10°C, 18,000 and 26,000 rpm, absorbance at 280 nm, global fit with a single species
# [2] = molecular target: the molecule itself; assay: AUC; sedimentation velocity with fluorescence detection, 8 to 800 nM DdBrk1_488, PBS, 20°C, 50,000 rpm; trimer to monomers
# [3] = molecular target: T1, Scar(1-225)/AbiA(1-149)/DdBrk1-complex; assay: SEC; 100 nM DdBrk1_488 incubated with the unlabelled complex (1.4 µM MBP-DdBrk1) for two hours on ice; Superdex-S200 10/300, PBS, 4°C, absorbance at 488 nm and 280 nm; settings: both partners purified
binding result [3],Binder,stoichiometry N [1],stoichiometry N [2]
,"Dictyostelium discoideum Brk1 (DdBrk1), GST tag removed (natural protein, extra amino acids left at the N-terminus after PreScission cleavage of the GST tag; Brk1 (HSPC300 ortholog) of Dictyostelium discoideum, 68 residues; Calculated molar mass 8.61 kg/mol per chain; homotrimer by sedimentation equilibrium; also called DdHSPC300; HSPC300; source: E. coli BL21 DE3, purified (glutathione sepharose, PreScission cleavage, Mono Q, Superdex-S75); not shown: GST, N-terminal, …) GPLGSMSTKTNIQKDWEQREFIEDMSINIQKIVEFLNKFELSTRNKLSDLNEKLTILDRQVDYLEATFKTVQE",3,
binds,"DdBrk1_488 (DdBrk1 mutant M1C labelled with Alexa 488) (natural protein, Dictyostelium discoideum, Alexa 488 (Alexa-488 Fluor C5 maleimide) on the cysteine that replaces methionine 1, extra amino acids left at the N-terminus after PreScission cleavage of the GST tag; Brk1 of Dictyostelium discoideum, 68 residues, first methionine replaced by cysteine; Trimer at the highest concentrations examined; dissociates in the lower nanomolar range; also called DdBrk1 M1C; DdBrk1_M1C; not shown: GST, N-terminal, cleaved) GPLGSCSTKTNIQKDWEQREFIEDMSINIQKIVEFLNKFELSTRNKLSDLNEKLTILDRQVDYLEATFKTVQE",,3

# From article PMC3119050, “High-Resolution X-Ray Structure of the Trimeric Scar/WAVE-Complex Precursor Brk1” (PLoS ONE, 2011)
